Source: the DeepSol protein solubility set

assay: soluble on expression in E. coli; label from the status in PepcDB or PDB records

Sequence	soluble on expression in E. coli
MGSDKIHHHHHHVACKPKEKPSSATSLTDDALMDTVQRRTFNYFWDAAEPNSGLARERYHMDGEYPAGGPEIVTSGGSGFGIMAILAGIDRGYVSREEGLRRMEKIVGFLEKADRFKGAYPHWWNGETGHVQPFGQKDNGGDLVETAFLMQGLLAVHQYYAEGSAEEKKLAGRIDKLWREVDWNWYRHGGQNVLYWHWSPEYGWEMNFPVHGYNECLIMYILAAASPTHGVPAAVYHEGWAQNGAIVSPHKVEGIELHLRYQGGEAGPLFWAQYSFLGLDPVGLKDEYCPSYFNEMRNLTLVNREYCIRNPKHYKGYGPDCWGLTASYSVDGYAAHGPLERDDRGVISPTAALSSIVYTPDQSLQVMHHLYEMGDKVFGPYGFYDAFSETADWYPKRYLAIDQGPIAVMIENYRTGLLWKLFMSHPDVQNGLKKLGFNVKK	not soluble
MTATSSPTTRFTDRVVLITGGGSGLGRATAVRLAAEGAKLSLVDVSSEGLEASKAAVLETAPDAEVLTTVADVSDEAQVEAYVTATTERFGRIDGFFNNAGIEGKQNPTESFTAAEFDKVVSINLRGVFLGLEKVLKIMREQGSGMVVNTASVGGIRGIGNQSGYAAAKHGVVGLTRNSAVEYGRYGIRINAIAPGAIWTPMVENSMKQLDPENPRKAAEEFIQVNPSKRYGEAPEIAAVVAFLLSDDASYVNATVVPIDGGQSAAY	soluble
MDRKVAREFRHKVDFLIENDAEKDYLYDVLRMYHQTMDVAVLVGDLKLVINEPSRLPLFDAIRPLIPLKHQVEYDQLTPRRSRKLKEVRLDRLHPEGLGLSVRGGLEFGCGLFISHLIKGGQADSVGLQVGDEIVRINGYSISSCTHEEVINLIRTEKTVSIKVRHIGLIPVKSSPDEPLTWQYVDQFVSES	soluble
MGEEEESLAILRRHVMNELLDTERAYVEELLCVLEGYAAEMDNPLMAHLISTGLQNKKNILFGNMEEIYHFHNRIFLRELESCIDCPELVGRCFLERMEEFQIYEKYCQNKPRSESLWRQCSDCPFFQECQKKLDHKLSLDSYLLKPVQRITKYQLLLKEMLKYSKHCEGAEDLQEALSSILGILKAVNDSMHLIAITGYDGNLGDLGKLLMQGSFSVWTDHKKGHTKVKELARFKPMQRHLFLHEKAVLFCKKREENGEGYEKAPSYSYKQSLNMTAVGITENVKGDTKKFEIWYNAREEVYIIQAPTPEIKAAWVNAIRKVLTSQLQACREASQHRALEQSHSLEHHHHHH	soluble
MGHHHHHHSHPPERQINLSNIRAGNLARRAAATQPDAKDTPDEPWAFPAREFLRKKLIGKEVCFTIENKTPQGREYGMIYLGKDTNGENIAESLVAEGLATRREGMRANNPE	not soluble
MGHHHHHHSHMAASFAFLRDVRPYKTSWRVQVKVLHSWCQYTNMTGETLKLVLVNSQGVKIHASVKKDLVSKYVNNLPLNEWTFIETFALNHASGQFRPTGHLYKMSFVTGTQVIRCDS	soluble
MAKPVVIGSRSFRTQSSALDHYKALLHRYQDGQRIADPADHTDLVALIERFDPVLDAVGEPAKGAGQIAHFERRLNTGIGWSTPGFWVVRQDGTETDFSYIDAVKGRPKGRSQDFYNACRQAVALDLVLAKKQAFAQYGDDQGRVECELTGKMVTIDDAHLDHAWPYFSHMVSGFRAARGWSRDIPDGIVSTPADGQTTATFLDSAVTEAFRAFHHDQAVLRVLSREANLQTASSARRPKVARPVRLA	not soluble
MTSPSSASPDGHGARLDAQSIRFERLLPGPIERVWAWLADADKRARWLAGGELPRQPGQTFELHFNHAALTAETAPARYAQYDRPIVARHTLLRCEPPRVLALTWGGGAGEAPSEVLFELSEAGEQVRLVLTHTRLADRAAMLDVAGGWHAHLAVLAGKLAGQAPPPFWTTLAQAEQDYEQRLLEHHHHHH	soluble
PTEEWLRYVTTARAKSKVDTFLRRKRRELINRGEERVVSVIRTSESMVSAELLDRIAAYFGFLNRETFFYAVGTGTVSLPESFKKL	not soluble
DNYVGGIPLTSAHSGTVSGGVYCDSYYGMGDQEAKASNTIEKTFTVPDNANVEWAMLLTNVYCGHMQNNYQGKAKVDFNGKNLGTETLNVPYTYSYNGGNGHVQVNDHVNRVTSDYMMYYDVTGLVKAGKNTAVVKTDPLDSSFDGRIRLVTLVVAYNDGSKKTIWYQVNRGHDADSYYSDDEMNENYIGSTAFQAALPEGSSLTDSKLTLVYQASSDGAYAFNGNALSSGTPQGTFSGSNTWDVKDSLKSSGTNTLTYDRTASFYKSVLGILTAEYTTSSSGDSTDDTPADNTTDNGSAGDTTDDISSDNTTNDTSSDNTTSDVPAGNTTNDTPADNTTDAKFSADLGVQAIKVSHNSAAKAWKNLVNTVNVTVINNGPEKAGSFALELYSEGSLLESKPINGLANGATEAVEFVWKPEDAKNYTLRAVVVPGSTINDANATNNELSKTQEVMHNGYIGDKPLETYLHGTVKGNIIYDYGNSSYVKVSSGDVYTAGHSLSLPEGAIVKYARLYNFWTWSATGSSGVIPSMSLDFAGSSLTPEAEYADQKGWGQYDYPTGTWAYNVTGLVSGSGNYITTVKNTNSDAENSFCIDGIALLVVYEDASGKETQYWINEGCDAVSTMSSSGGLTPDEATVKIAFAGDSIDLGNVDNARLWTTVQSGGHEGIALKFNEMSISGVYDSTPSSNLDIDEARDVTSYLLSQNNEAQIIAPSVTDNSGDYMIPSSAILAVSYKSETTDDTNITDDTNVTDDTNVTDGTNVTDDTNVTDGTNVTNDTNVTNDTNVTNDTNVTNDTNVTNDTNVTNDTNVTDDTNVTDGTNVTDGTNVTIDTNVTIDTNVTIDTNVTDNTNVTDDTNMKDDTNVTLKVNIIPVISLTVSPDSLDFGTVSPGTPSESLPLALKNNGGISIKVTAEVHDQENGPFATGLLLDQNIWSNYSKVLAAESAETSQAQLDLPL	not soluble
MFQVKVRGCMTVYPKVQCISYKIDVDKPTVCELTLCLAPNSDVPADRFSNDLFLVVYNNEQKLVGLTRHVLEERKYSTGMMTVNEGDEVMIVGMGTTTNRKRSTTERVPLIEETNKLSKRFK	not soluble
MAHHHHHHMNEKNKDINKYTSTNNMYKLSENNHKSLLENLKRRGIIDDDDVYNTMLQVDRGKYIKEIPYIDTPVYISHGVTISAPHMHALSLKRLINVLKPGSRAIDVGSGSGYLTVCMAIKMNVLENKNSYVIGLERVKDLVNFSLENIKRDKPELLKIDNFKIIHKNIYQVNEEEKKELGLFDAIHVGASASELPEILVDLLAENGKLIIPIEEDYTQVLYEITKKNGKIIKDRLFDVCFVSLKKN	not soluble
MGSDKIHHHHHHQLVLAPADAERYAQNSFPEYLELLTLQNDAAVPADIQRNADWLEKAFQKRGFTTQTLTNGDKPLVYAEFGAAKSDRKTILFYMHFDGQPVNPSEWQTPPWQPVLKEKDAAGKWQTLPESRLLKGDINPEWRIFARASADDKGPIVMFLAAMDAMKEKGVEPAVNIKVLLDSEEEKGSPGLTTVMADHLMLLKSDGMVIYDGAMPSSNRPGINFGNRGSIQIDMTVFGANAAAHSGGYGNVIPNPVQNLATLLASMKDADGKVTIPGYYDRVTLSDSDKKQVAETSPPAGSLEKRFGVAQLDKVAGNAAEAVQYPSLDILGIKAGETGKKASNAIPSTATASVNIRTVPETPPDDMYALLRQYIASKGFHIIAGESPTQAEREQYPHLISLHLTAYPSSAYAARTEIDSPLGHWAVATTTAPRGIAPEKNRMMGGTLPMSGAVSVLKVPYVIVPLVNADNNQHSFDENLRLGNYLEGIRTIVAMATTPLS	not soluble
MAHHHHHHMLCLVRAAEPKPYTALSPEALYEAVQPHDHTLRPSPFIAHQALMDFYKACDGYYGVNREEVDVQQLTSFEHKKTHGGASSGNNSGSNSGATLSSLLSGSASAAPSSSLSAAAGAPPLPPLPSPDDPNLAEKLNDYRIAQLRRNAQHVDNTVYHAHNSSNGGSNSNVANAGSSGVCHFYRTPEGCQRGAACPFTHLDKHGQPVNRVAKS	soluble
MGSDKIHHHHHHMVKHHCRMVFKFKLGFFTDLHGSEYSFKRSLNIAKSKRVDFLIISGGLIAKEILFVEDIGGRYFLNGKKVNLNNLNEDALRSGKYIVVDKKEVIEDIKSDKSKLEKIVIEKASEQMSRWVKIAEEIFRLEKVFWSPAHGDIPQLDSILKNYGSNLINENVINLEEIQIVSLGFGSPIGNSYREIPDSELYIKGKSLLKDADKERLIMNFHMPPLNTKLDNAKVGLRKSHVGSKAVLDLITEFQPIISLHGHVHESTSMDKVGETIAINPGSLYQLGDPSIVTFEVHKELKSFGSVNVSKYVIKNIEFVSTNPLDVI	not soluble
MAQVLRGTVTDFPGFDERADAETLRKAMKGLGTDEESILTLLTSRSNAQRQEISAAFKTLFGRDLLDDLKSELTGKFEKLIVALMKPSRLYDAYELKHALKGAGTNEKVLTEIIASRTPEELRAIKQVYEEEYGSSLEDDVVGDTSGYYQRMLVVLLQANRDPDAGIDEAQVEQDAQALFQAGELKWGTDEEKFITIFGTRSVSHLRKVFDKYMTISGFQIEETIDRETSGNLEQLLLAVVKSIRSIPAYLAETLYYAMKGAGTDDHTLIRVMVSRSEIDLFNIRKEFRKNFATSLYSMIKGDTSGDYKKALLLLCGEDD	soluble
MGSDKIHHHHHHMSESAIADFVSSFIPDTATHVEPVRGRVVMSKRRIVLAADDEKTTIPLNGVFDVQHETAPGDLARFFEDTVTIAYEHDEDRHVAVIEGGGSTVDRFVTLVFKALVHGTTVYAKHPARRGGRITDQPFEKGNLALSPGDLTITGDADTTIDLSTVSHFERVDREVNGSNKQLLSVRHMGSTGPITTELALSSGRKMNLLGRYIRLQYTHLKQELADVTLTSEEIEALVAIYSSGPNASLAAVLGVDASRVTMLLNDLIEKELVTDDDGIALTSLGRAAVSEHIEDVNL	not soluble
MSLQFDARNMALLESLVVANVYLAPEKLQEELGISKRTLQYDVEKINKELDNIGLDGIQSVRGQGYYLLEDEKSTIKEILGNREASHKVFSASERRIRILFFLLVTDARVIIDTINECNEVSRNTSLQDIKQLKLALKQFNLELAYDRKNGNMVLGDERSIRQFFIHYCMNNEEIATADQLLDLMKINPMIKNQELFPKLDTIFEILAVTEKKIGIRYTDEVLERIGIMIFFFKERMKRNCYLNEQEEHEVESFEIAQEIYQQLQQSENFKINHAEITYLGKLLLGASRLNDDAAAEGKLDLIVEKIIAEFERLACVNFEDHRNLKKDLLLHLQPAYYRLKFQIEWINPLRTDIKQSYSDVYEITKKSLEPLEDLLGETIPEDEIAYVTILFGGYLSRKNNEGHHHHHH	soluble
YHPVFSAKIEQRLIERFGVKRALVALDQPNEEAQRLQVSGLVSNYLTSTLKNGMVVTVGQGRNVSSVAHHIGVITPRDCKFVCGIGGIHPRGGMYNADHICRQLAKKYGGTSETLYAPAYAENREQKMAFMQNATVKQTLDLARKADVALVGIGDMSENSYMVDLGWFTPDEVVQSRLKQGVVGDFAGYDFFDIHGNVANTVMSDRVIGLGIEEFRPIAEVIAIAAENSKPLALLGALRTGAIDVIATSVSNALTVLNLDEQMHGNAASES	not soluble
MGSDKIHHHHHHMENLTLKGKVILEGIIELETGMHIGGTKETLKIGGTDNPVIRDAFGRILIPGSSLKGKIRALLERKDGKYKEDGRGNYLPHDCGECEICKIFGPHDSKNIKEPVRVIVRDAYLQPEENKKDYDYLEIKVENTIDRLKGTTIKGGIRNMERVVAGSKFKFEVVFNIYKESDKELIKKFIEGMKLLEDDYLGGSGSRGYGKIKFRDIKLICKPKEYYEGNENSKKESDEVESLNELESELDKIWGGINFN	not soluble
MKNMLPAYIKIHDQIKKDIDEYRWAIGERLPSERDLAEQFAVSRMTLRQAVSLLVEEGVLERRVGSGTFVSSTRVQEKMRGTTSFTEIVKSQGKVPSSQLISYKKTIPNEQEVAKLGIFPTDNIIRMERVRYADQVPLVYEVASIPEKFIKDFKKEEITSHFFQTLQKHGYRIGKSQQTIYARLAKEKIAHYLEVEKGHAILGLTQVSYLEDGTAFEYVKSQYVGERFEFYLENN	not soluble
